Source: patent US20260139048A1 (NANJING LEGEND BIOTECH, published 2026)
Changes are numbered by the printed parent chain.

B1: humanized TIGIT-6 antibody 6VH6 + 6VL1 (antibody, V domains shown)
VH: QVQLVQSGAEVKKPGASVKVSCKASGYTITENTMHWVRQAPGQRLEWIGGINPNNGGTSYNQQFKGRATLTVDTSASTAYMELSSLRSEDTAVYYCTRSSYYRYDLDYWGQGTTVTVSS
VL: DIQMTQSPSSLSASVGDRVTITCKASQDVKTALAWYQQKPGKAPKLLIYSASYRYTGVPSRFSGSGSGTDFTFTISSLQPEDIATYYCHQHYTTPWTFGGGTKLEIK
notes: Full-length IgG, tested as HEK293 supernatant
B2: humanized TIGIT-6 antibody 6VH6.M1 + 6VL1 (antibody, V domains shown)
VH: B1 VH with I29F, T33A
VL: B1 VL
notes: as for B1
B3: humanized TIGIT-6 antibody 6VH6 + 6VL1.M1 (antibody, V domains shown)
VH: B1 VH
VL: B1 VL with K24Q, V29I
notes: as for B1
B4: humanized TIGIT-6 antibody 6VH6.M4 + 6VL1 (antibody, V domains shown)
VH: B1 VH with N55Q, N61S, Q63K, K65Q
VL: B1 VL
notes: as for B1
B5: humanized TIGIT-6 antibody 6VH6.M3 + 6VL1 (antibody, V domains shown)
VH: B1 VH with N61S, Q63K, K65Q
VL: B1 VL
notes: as for B1
B6: humanized TIGIT-6 antibody 6VH5 + 6VL1 (antibody, V domains shown)
VH: B1 VH with V72R
VL: B1 VL
notes: as for B1
B7: huTIGIT-6-1 (antibody, human IgG1, kappa, V domains shown)
VH: B1 VH with N55Q, N61S, Q63K, K65Q
VL: DIQMTQSPSSLSASVGDRVTITCQASQDIKTALAWYQQKPGKAPKLLIYSASYRYTGVPSRFSGSGSGTDFTFTISSLQPEDIATYYCHQHYTTPWTFGGGTKLEIKR
notes: Humanized IgG; also called 6VH6.M4 + 6VL1.M1
B8: huTIGIT-6-2 (antibody, human IgG1, kappa, V domains shown)
VH: B1 VH with G56A, N61S, Q63K, K65Q
VL: B7 VL
notes: Humanized IgG; also called 6VH6.M5 + 6VL1.M1
B9: huTIGIT-19-1 (antibody, human IgG1, kappa, V domains shown)
VH: QVQLVQSGAEVKKPGASVKVSCKASGYTFTRYSMYWVRQAPGQGLEWIAFIDAYSGGSTYNQRFRGKATLTVDTSISTAYMELSRLRSDDTAVYYCARGGDYGWYLGVWGQGTLVTVSS
VL: DIQMTQSPSSLSASVGDRVTITCRPSENIYTYLSWYQQKPGKAPKLLIYNAKSLPSGVPSRFSGSGSGTDFTLTISSLQPEDFATYYCQHHYGNPLTFGQGTKVEIKR
notes: Humanized IgG; also called 19VH4.M9 + 19VL1.M4
B10: huTIGIT-19-3 (antibody, human IgG1, kappa, V domains shown)
VH: B9 VH with N61A, R63K, R65Q
VL: B9 VL
notes: Humanized IgG; also called 19VH4.M10 + 19VL1.M4
B11: huTIGIT-19-4 (antibody, human IgG1, kappa, V domains shown)
VH: B9 VH with N61A, R63K, R65Q
VL: B9 VL with P25A, E27Q, N28S, T31S
notes: Humanized IgG; also called 19VH4.M10 + 19VL1.M7
B12: huTIGIT-19-2 (antibody, human IgG1, kappa, V domains shown)
VH: B9 VH
VL: B9 VL with P25A, E27Q, N28S, T31S
notes: Humanized IgG; also called 19VH4.M9 + 19VL1.M7
B13: humanized TIGIT-6 antibody 6VH6.M3 + 6VL1.M1 (antibody, V domains shown)
VH: B1 VH with N61S, Q63K, K65Q
VL: B1 VL with K24Q, V29I
notes: as for B1
B14: humanized TIGIT-19 antibody 19VH4 + 19VL1.M5 (antibody, V domains shown)
VH: B9 VH with T28A, T30S, A53P, S55N
VL: DIQMTQSPSSLSASVGDRVTITCRASQNIYTYLSWYQQKPGKAPKLLIYNAKSLPSGVPSRFSGSGSGTDFTLTISSLQPEDFATYYCQHHYGNPLTFGQGTKVEIK
notes: as for B1
B15: humanized TIGIT-19 antibody 19VH4.M9 + 19VL1 (antibody, V domains shown)
VH: B9 VH
VL: B14 VL with A25P, Q27E, S53T, S56E
notes: as for B1
B16: humanized TIGIT-19 antibody 19VH4.M4 + 19VL1 (antibody, V domains shown)
VH: B9 VH with T28A, T30S, A53P
VL: B14 VL with A25P, Q27E, S53T, S56E
notes: as for B1
B17: humanized TIGIT-19 antibody 19VH4 + 19VL1.M6 (antibody, V domains shown)
VH: B9 VH with T28A, T30S, A53P, S55N
VL: B14 VL with T31S
notes: as for B1
B18: humanized TIGIT-19 antibody 19VH4.M5 + 19VL1 (antibody, V domains shown)
VH: B9 VH with T28A, T30S, A53P, S55N, N61A, R63K, R65Q
VL: B14 VL with A25P, Q27E, S53T, S56E
notes: as for B1
B19: humanized TIGIT-19 antibody 19VH4 + 19VL1.M4 (antibody, V domains shown)
VH: B9 VH with T28A, T30S, A53P, S55N
VL: B14 VL with A25P, Q27E
notes: as for B1
B20: humanized TIGIT-19 antibody 19VH4.M7 + 19VL1 (antibody, V domains shown)
VH: B9 VH with A53P, N61A, R63K, R65Q
VL: B14 VL with A25P, Q27E, S53T, S56E
notes: as for B1
B21: humanized TIGIT-19 antibody 19VH4 + 19VL1.M7 (antibody, V domains shown)
VH: B9 VH with T28A, T30S, A53P, S55N
VL: B14 VL with N28S, T31S
notes: as for B1
B22: humanized TIGIT-19 antibody 19VH4.M6 + 19VL1 (antibody, V domains shown)
VH: B9 VH with A53P
VL: B14 VL with A25P, Q27E, S53T, S56E
notes: as for B1

The binders below were run against T1, His-tagged human TIGIT (human, UniProt Q495A1 22-141) (assay: SPR experiment 1, IgG from HEK293 supernatant captured).
T1 construct: SPR analyte; also called human TIGIT protein; not shown: His tag
T1 sequence: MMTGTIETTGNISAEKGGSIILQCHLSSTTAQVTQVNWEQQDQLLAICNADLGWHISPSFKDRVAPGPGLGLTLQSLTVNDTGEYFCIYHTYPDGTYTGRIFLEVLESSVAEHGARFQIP

| Binder | Kd [pM] | koff [s⁻¹] | kon [M⁻¹ s⁻¹] |
| --- | --- | --- | --- |
| B1 | 300 | 0.00014 | 470000 |
| B2 | 630 | 0.00026 | 410000 |
| B3 | 240 | 0.00013 | 530000 |
| B4 | 650 | 0.00015 | 230000 |
| B5 | 350 | 0.00012 | 350000 |
| B6 | 350 | 0.00011 | 310000 |

What follows are binders tested against T2, TIGIT on TIGIT-over expressing NFAT-Luc/Jurkat effector cells (GenScript reporter cell line) (UniProt Q495A1 22-244, limits assumed) (assay: cell-based or functional assay).
T2 sequence (looked up): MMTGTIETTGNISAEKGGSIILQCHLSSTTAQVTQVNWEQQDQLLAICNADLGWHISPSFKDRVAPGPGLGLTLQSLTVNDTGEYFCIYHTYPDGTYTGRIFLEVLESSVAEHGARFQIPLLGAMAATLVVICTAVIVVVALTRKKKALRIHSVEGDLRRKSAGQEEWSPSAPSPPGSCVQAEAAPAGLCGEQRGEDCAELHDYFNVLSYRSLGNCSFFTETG

| Binder | Bottom (RLU) | EC50 [pM] | Top (RLU) |
| --- | --- | --- | --- |
| B7 | 51200 | 9100 | 131000 |
| B8 | 49800 | 9030 | 129000 |
| B9 | 53900 | 2050 | 144000 |
| B10 | 53700 | 2650 | 142000 |
| B11 | 51300 | 4280 | 148000 |
| B12 | 55200 | 2390 | 155000 |

The binders below were run against T3, human TIGIT expressed on CHO-K1 cells (human, UniProt Q495A1 22-244) (assay: flow cytometry on CHO-K1 cells expressing human TIGIT).
T3 construct: whole, on cells; also called human TIGIT-CHO-K1 cells; human TIGIT over-expressing cell line
T3 sequence (looked up): T2 sequence (looked up)

| Binder | EC50 [pM] |
| --- | --- |
| B7 | 1160 |
| B8 | 744 |
| B9 | 294 |
| B10 | 196 |
| B11 | 172 |
| B12 | 256 |

What follows are binders tested against T1, His-tagged human TIGIT (assay: SPR experiment 2, IgG from HEK293 supernatant captured).

| Binder | Kd [pM] | koff [s⁻¹] | kon [M⁻¹ s⁻¹] |
| --- | --- | --- | --- |
| B7 | 340 | 9.8e-05 | 280000 |
| B13 | 500 | 0.00016 | 320000 |
| B8 | 710 | 0.00022 | 300000 |

Each binder was assayed against T4, cynomolgus TIGIT expressed on CHO-K1 cells (cynomolgus, UniProt A0A7N9I9V4 89-312) (assay: flow cytometry on CHO-K1 cells expressing cynomolgus TIGIT).
T4 construct: whole, on cells; also called cynomolgus TIGIT over-expressing cell line
T4 sequence (A0A7N9I9V4 entry or part of it): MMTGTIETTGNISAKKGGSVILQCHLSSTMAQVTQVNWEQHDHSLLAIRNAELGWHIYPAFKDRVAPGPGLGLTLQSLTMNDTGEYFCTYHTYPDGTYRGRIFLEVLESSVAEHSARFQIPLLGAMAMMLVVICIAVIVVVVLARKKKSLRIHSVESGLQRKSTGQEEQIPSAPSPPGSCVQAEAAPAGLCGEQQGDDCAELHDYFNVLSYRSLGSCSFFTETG

| Binder | EC50 [pM] |
| --- | --- |
| B7 | 4690 |
| B8 | 4980 |
| B9 | 473 |
| B10 | 384 |
| B11 | 408 |
| B12 | 440 |

What follows are binders tested against T1, His-tagged human TIGIT (assay: SPR (Biacore T200), antibody captured, His-tagged TIGIT analyte).

| Binder | Kd [pM] | koff [s⁻¹] | kon [M⁻¹ s⁻¹] |
| --- | --- | --- | --- |
| B7 | 210 | 5.6e-05 | 260000 |
| B8 | 270 | 9.6e-05 | 350000 |
| B9 | 160 | 0.00019 | 1.1e+06 |
| B10 | 280 | 0.0003 | 1.1e+06 |
| B11 | 490 | 0.00059 | 1.2e+06 |
| B12 | 190 | 0.00021 | 1.1e+06 |

Each binder was assayed against T5, His-tagged cynomolgus TIGIT (cynomolgus, UniProt A0A7N9I9V4 89-209) in the same assay as above.
T5 construct: SPR analyte; also called cynomolgus TIGIT protein; not shown: His tag
T5 sequence (A0A7N9I9V4 entry or part of it): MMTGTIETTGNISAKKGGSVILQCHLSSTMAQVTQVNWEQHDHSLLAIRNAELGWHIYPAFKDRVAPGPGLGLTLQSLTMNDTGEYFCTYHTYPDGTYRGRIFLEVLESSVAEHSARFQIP

| Binder | Kd [pM] | koff [s⁻¹] | kon [M⁻¹ s⁻¹] |
| --- | --- | --- | --- |
| B7 | 75000 | 0.0044 | 59000 |
| B8 | 110000 | 0.0074 | 69000 |
| B9 | 47 | 3.7e-05 | 790000 |
| B10 | 54 | 4.1e-05 | 760000 |
| B11 | 87 | 7.3e-05 | 840000 |
| B12 | 55 | 5.2e-05 | 950000 |

Biological target: T1, His-tagged human TIGIT
Test: SPR experiment 2, IgG from HEK293 supernatant captured
Remark: another data set of the same source

| Binder | Kd [pM] | koff [s⁻¹] | kon [M⁻¹ s⁻¹] |
| --- | --- | --- | --- |
| B14 | 81 | 8.7e-05 | 1.1e+06 |
| B15 | 220 | 0.00023 | 1.1e+06 |
| B16 | 120 | 0.00013 | 1.1e+06 |
| B17 | 150 | 0.00015 | 1e+06 |
| B18 | 160 | 0.0002 | 1.3e+06 |
| B19 | 23 | 2.7e-05 | 1.2e+06 |
| B20 | 300 | 0.00032 | 1.1e+06 |
| B21 | 130 | 0.00017 | 1.3e+06 |
| B22 | 200 | 0.00021 | 1e+06 |

The binders below were run against T3, human TIGIT expressed on CHO-K1 cells (assay: flow cytometry competition: biotinylated CD155-Fc on human TIGIT-CHO-K1 cells).

| Binder | IC50 [pM] |
| --- | --- |
| B7 | 1040 |
| B8 | 974 |
| B9 | 220 |
| B10 | 210 |
| B11 | 260 |
| B12 | 240 |
